Earlier results on five substances are cited in paper PMC8990303.

By Ki is commonly meant the equilibrium dissociation constant of an inhibitor or competing ligand from its target. The term Kd denotes the free concentration of one partner at which half of the binding sites on the other are occupied at equilibrium, for simple one-to-one binding.

Like-named read-outs stand apart in the source and are kept apart here.

In series [1] the target is Yellow mealworm alpha-amylase (TMA) (Tenebrio molitor) (UniProt P56634).
The target in series [2] is Porcine pancreatic alpha-amylase (PPA) (Sus scrofa) (UniProt P00690).
In series [3] the target is Human salivary alpha-amylase (HSA) (Homo sapiens) (UniProt P0DUB6).
The target of series [4] is Yellow mealworm alpha-amylase (TMA) (Tenebrio molitor) (UniProt P56634). The source holds these as a separate data set.
Series [5] deals with Porcine trypsin (Sus scrofa) (UniProt P00761).
For series [6] the target is unchanged. The source holds these as a separate data set.
The target of series [7] is Porcine alpha-amylase (Sus scrofa) (UniProt P00690).
The target is the same in series [8]. The source holds these as a separate data set.
Series [9] addresses Factor XIa (Homo sapiens) (UniProt P03951).
Series [10] addresses Factor XIIa (Homo sapiens) (UniProt P00748).
In series [11] the target is Bovine pancreatic trypsin (Bos taurus) (UniProt P00760).
The target in series [12] is Bovine trypsin (Bos taurus) (UniProt P00760).
In series [13] the target is Porcine pancreatic alpha-amylase (PPA) (Sus scrofa) (UniProt P00690). The source holds these as a separate data set.

UniProt P00761, sequence (P00761 9-231): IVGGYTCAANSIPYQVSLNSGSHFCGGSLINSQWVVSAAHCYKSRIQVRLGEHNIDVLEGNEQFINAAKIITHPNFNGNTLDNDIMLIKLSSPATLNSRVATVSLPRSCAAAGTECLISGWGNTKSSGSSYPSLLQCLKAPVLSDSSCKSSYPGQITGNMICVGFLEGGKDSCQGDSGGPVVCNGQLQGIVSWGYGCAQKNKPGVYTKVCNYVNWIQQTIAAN
UniProt P56634, sequence (P56634 whole entry): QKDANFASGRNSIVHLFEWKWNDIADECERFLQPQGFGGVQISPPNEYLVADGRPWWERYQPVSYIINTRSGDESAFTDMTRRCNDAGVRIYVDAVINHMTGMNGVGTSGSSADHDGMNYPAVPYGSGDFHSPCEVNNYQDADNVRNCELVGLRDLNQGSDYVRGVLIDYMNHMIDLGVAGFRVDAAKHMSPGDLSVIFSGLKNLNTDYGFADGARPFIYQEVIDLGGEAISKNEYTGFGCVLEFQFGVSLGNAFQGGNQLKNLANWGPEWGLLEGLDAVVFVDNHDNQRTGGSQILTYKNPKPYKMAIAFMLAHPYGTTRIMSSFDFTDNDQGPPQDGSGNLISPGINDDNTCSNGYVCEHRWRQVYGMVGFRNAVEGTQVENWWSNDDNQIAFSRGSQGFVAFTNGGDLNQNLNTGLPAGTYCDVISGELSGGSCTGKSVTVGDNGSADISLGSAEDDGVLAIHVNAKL
UniProt P00748, sequence (P00748 whole entry, looked up): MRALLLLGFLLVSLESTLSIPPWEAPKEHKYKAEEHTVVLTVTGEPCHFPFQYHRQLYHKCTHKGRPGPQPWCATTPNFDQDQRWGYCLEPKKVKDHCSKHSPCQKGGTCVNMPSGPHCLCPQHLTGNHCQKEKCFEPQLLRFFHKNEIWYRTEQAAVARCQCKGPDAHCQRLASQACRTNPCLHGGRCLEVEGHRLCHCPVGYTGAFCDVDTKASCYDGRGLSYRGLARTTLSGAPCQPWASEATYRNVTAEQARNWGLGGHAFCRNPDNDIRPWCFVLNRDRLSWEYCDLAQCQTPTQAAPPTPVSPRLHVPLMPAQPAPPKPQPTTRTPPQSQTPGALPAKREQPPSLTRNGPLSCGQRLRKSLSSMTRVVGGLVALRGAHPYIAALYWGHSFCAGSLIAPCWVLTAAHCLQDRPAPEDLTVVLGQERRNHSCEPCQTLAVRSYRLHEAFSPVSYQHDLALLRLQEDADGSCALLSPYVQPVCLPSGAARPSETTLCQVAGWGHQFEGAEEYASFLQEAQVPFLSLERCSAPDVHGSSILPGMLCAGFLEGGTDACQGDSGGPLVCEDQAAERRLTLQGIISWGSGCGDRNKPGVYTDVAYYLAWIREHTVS
UniProt P0DUB6, sequence (P0DUB6 16-511): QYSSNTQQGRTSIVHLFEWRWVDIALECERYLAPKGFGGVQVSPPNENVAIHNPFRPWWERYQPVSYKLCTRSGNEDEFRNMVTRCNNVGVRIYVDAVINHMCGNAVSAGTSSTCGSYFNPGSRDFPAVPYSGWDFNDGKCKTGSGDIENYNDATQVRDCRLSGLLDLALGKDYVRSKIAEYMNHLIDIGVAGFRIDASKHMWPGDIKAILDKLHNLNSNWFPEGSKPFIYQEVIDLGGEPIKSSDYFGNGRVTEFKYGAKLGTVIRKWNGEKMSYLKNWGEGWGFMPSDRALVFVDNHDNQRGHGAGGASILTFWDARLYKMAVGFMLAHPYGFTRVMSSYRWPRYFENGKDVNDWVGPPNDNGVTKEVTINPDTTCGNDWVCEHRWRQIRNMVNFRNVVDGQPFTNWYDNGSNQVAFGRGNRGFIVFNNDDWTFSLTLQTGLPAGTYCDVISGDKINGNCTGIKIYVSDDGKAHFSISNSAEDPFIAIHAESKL
UniProt P03951, sequence (P03951 388-625): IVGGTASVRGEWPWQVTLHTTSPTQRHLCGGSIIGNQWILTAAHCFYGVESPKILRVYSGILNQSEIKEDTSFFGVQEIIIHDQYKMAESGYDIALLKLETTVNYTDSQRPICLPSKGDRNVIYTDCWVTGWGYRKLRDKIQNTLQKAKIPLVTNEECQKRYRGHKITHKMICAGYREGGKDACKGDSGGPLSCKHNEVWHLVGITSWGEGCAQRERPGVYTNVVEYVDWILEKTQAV

Take “0.19 alpha-amylase inhibitor (from UniProt P01085)”: the Ki was 0.85 nM in series [1], 57.3 nM in [2] and 0.29 nM in [3].
Turning to “0.28 alpha-amylase inhibitor (WMAI-1) (from UniProt P01083)”, the Ki in series [4] is 0.13 nM.
Consider CM3 (from UniProt P17314), for which the inhibitory constant (Ki) is 10.4 nM in series [5] and 600 nM in [8]. The Kd in series [6] was 36 nM; in series [7], 340 nM.
Regarding “Corn Hageman factor inhibitor (CHFI) (from UniProt P01088)”, the figures for the Ki in series [9], in series [10] and in series [11] were 5400 nM, 1 nM and 2.1 nM, respectively.
Take “Ragi bifunctional alpha-amylase/trypsin inhibitor (RBI) (from UniProt P01087)”: the results for the inhibition constant Ki in series [12] and in series [13] were 1.2 nM and 11 nM, respectively.
